Target: prolactin receptor on Nb2 T lymphoma cells (rat) (UniProt P05710)
Assay: cell-based or functional assay

UniProt P05710, sequence (P05710 20-610): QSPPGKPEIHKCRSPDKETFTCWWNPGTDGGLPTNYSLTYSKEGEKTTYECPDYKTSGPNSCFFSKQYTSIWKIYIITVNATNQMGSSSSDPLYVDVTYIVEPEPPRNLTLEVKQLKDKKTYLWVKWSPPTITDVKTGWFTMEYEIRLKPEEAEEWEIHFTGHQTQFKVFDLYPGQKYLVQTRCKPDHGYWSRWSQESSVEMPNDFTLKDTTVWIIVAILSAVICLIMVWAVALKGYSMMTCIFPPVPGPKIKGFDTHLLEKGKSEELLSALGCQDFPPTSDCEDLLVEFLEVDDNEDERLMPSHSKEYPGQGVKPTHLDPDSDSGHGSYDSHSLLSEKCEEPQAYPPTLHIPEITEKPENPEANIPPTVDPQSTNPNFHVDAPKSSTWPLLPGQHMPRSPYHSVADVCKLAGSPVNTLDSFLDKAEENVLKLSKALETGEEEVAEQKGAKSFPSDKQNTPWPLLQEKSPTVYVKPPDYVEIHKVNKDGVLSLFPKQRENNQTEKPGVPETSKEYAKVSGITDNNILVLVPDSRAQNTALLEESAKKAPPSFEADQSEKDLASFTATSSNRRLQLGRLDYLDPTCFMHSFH

reduction of the Nb2 cell growth response to 800 pg/ml wild-type PRL by 200 pg/ml glutamate mutant (MTS assay) (fraction of growth response) | inhibition of the Nb2 cell growth response to 400 pg/ml wild-type PRL by 200 pg/ml aspartate mutant (MTS assay) [%] | Substance
0.5 |  | human prolactin glutamate mutant (serine 179 substituted with glutamate) (from UniProt P01236 29-227) (ligand)
 | 75 | human prolactin aspartate mutant (serine 179 substituted with aspartate) (from UniProt P01236 29-227) (ligand)

Reference: US6890738
